Measured values taken from publication PMC8327961, “Nse5/6 inhibits the Smc5/6 ATPase and modulates DNA substrate binding” (The EMBO Journal, 2021).

T1: Nse5/6 dimer (Saccharomyces cerevisiae, UniProt Q03718;P40026 1-556;1-464)
T1 sequence 1: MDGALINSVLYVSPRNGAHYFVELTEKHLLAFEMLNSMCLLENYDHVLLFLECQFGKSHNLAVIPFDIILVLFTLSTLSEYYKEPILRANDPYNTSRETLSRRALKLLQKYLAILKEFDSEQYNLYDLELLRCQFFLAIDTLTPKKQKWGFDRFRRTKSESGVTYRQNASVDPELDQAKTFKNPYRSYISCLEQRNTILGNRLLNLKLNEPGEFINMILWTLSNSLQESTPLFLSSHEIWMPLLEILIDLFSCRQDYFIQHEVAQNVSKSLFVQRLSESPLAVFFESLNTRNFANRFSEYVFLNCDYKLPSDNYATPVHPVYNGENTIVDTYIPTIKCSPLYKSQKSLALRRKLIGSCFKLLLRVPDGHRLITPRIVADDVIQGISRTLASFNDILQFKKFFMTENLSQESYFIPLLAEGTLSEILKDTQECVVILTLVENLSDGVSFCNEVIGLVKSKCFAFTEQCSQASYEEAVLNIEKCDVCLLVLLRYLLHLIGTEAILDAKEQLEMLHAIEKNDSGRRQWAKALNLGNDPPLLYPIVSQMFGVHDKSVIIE
T1 sequence 2: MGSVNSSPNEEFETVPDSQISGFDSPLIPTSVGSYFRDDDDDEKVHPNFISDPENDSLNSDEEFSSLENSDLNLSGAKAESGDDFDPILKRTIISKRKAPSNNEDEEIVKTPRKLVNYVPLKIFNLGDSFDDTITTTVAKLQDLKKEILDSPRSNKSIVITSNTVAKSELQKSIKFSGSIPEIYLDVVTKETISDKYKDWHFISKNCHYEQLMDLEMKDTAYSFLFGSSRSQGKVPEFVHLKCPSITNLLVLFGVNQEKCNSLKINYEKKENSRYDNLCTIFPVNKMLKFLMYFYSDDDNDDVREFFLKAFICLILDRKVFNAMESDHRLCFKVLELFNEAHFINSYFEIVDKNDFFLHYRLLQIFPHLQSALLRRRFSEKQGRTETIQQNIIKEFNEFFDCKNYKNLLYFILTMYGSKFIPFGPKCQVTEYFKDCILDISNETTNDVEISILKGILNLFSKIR


Columns and labels:
Smc5/6 core hexamer = biological target: T2, Smc5/6 core hexamer (Saccharomyces cerevisiae, UniProt Q08204+Q12749); assay: pyruvate kinase/lactate dehydrogenase coupled ATPase assay; format: biochemical; conditions: Walker B mutation in both Smc5 and Smc6, residue numbers not told; ATPase buffer pH 7.5, 2 mM MgCl2; 25 °C
T2 construct: full-length Smc5, Smc6, Nse1, Nse2, Nse3, Nse4 co-expressed in E. coli Rosetta (DE3); C-terminal 3C-Twin-Strep-tag on Smc6; with Non-structural maintenance of chromosomes element 1; E3 SUMO-protein ligase MMS21; Non-structural maintenance of chromosome element 3; Non-structural maintenance of chromosome element 4

Nse5/6 dimer = biological target: T1, Nse5/6 dimer; assay: fluorescence anisotropy; ATPase buffer: 10 mM Hepes-KOH pH 7.5, 150 mM K-OAc, 2 mM MgCl2, 20% glycerol; anisotropy at 25 C; plasmid pulldown bound at room temperature, high-salt buffer; conditions: protein: recombinant; copies: 1;1; blunt
[1] = biological target: Smc5/6 hexamer (Smc5, Smc6, Nse1, Nse2, Nse3, Nse4) (Saccharomyces cerevisiae, UniProt Q08204;Q12749;Q07913;P38632;Q05541;P43124 1-1093;1-1114;1-336;1-267;1-303;1-402); assay: as above; conditions: protein: recombinant; tags: C-terminal 3C-Twin-Strep on Smc6; copies: 1;1;1;1;1;1; blunt
[2] = biological target: Smc5/6 octamer (hexamer plus Nse5/6) (Saccharomyces cerevisiae, UniProt Q08204;Q12749;Q07913;P38632;Q05541;P43124;Q03718;P40026 …); assay: as above; conditions: protein: recombinant; tags: C-terminal 3C-Twin-Strep on Smc6; reconstitution with Nse5 C-terminal AviTag-3C-Twin-Strep; copies: 1;1;1;1;1;1;1;1; blunt

T2 sequence (Q08204 whole entry): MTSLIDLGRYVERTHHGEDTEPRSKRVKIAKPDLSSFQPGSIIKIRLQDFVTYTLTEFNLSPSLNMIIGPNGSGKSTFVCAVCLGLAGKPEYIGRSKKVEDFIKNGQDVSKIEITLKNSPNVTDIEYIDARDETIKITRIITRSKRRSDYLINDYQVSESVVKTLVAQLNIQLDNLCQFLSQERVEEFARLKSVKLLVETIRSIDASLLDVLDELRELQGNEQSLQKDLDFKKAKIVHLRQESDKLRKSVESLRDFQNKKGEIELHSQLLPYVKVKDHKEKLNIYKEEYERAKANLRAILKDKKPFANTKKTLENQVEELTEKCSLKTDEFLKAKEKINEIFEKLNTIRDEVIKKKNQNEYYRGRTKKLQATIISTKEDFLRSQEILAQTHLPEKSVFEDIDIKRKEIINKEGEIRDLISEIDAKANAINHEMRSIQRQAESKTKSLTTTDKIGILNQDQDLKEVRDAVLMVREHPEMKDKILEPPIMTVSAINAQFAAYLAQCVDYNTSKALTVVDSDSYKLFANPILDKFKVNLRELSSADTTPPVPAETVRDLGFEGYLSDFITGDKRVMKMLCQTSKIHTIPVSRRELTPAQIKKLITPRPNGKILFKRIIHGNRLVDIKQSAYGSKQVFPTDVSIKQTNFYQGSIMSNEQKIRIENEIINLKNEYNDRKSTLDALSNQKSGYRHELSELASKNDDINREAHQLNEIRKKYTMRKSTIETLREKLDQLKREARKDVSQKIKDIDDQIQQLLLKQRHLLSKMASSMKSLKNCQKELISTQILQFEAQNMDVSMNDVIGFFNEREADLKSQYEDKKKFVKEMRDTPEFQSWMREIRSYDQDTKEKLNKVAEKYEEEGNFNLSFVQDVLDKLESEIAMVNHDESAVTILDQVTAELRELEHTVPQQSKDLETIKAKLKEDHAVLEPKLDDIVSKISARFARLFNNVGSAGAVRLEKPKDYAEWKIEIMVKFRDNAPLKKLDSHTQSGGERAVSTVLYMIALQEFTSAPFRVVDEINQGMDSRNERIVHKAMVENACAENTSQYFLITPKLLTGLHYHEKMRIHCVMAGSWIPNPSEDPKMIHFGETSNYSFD
T2 sequence (Q12749 whole entry): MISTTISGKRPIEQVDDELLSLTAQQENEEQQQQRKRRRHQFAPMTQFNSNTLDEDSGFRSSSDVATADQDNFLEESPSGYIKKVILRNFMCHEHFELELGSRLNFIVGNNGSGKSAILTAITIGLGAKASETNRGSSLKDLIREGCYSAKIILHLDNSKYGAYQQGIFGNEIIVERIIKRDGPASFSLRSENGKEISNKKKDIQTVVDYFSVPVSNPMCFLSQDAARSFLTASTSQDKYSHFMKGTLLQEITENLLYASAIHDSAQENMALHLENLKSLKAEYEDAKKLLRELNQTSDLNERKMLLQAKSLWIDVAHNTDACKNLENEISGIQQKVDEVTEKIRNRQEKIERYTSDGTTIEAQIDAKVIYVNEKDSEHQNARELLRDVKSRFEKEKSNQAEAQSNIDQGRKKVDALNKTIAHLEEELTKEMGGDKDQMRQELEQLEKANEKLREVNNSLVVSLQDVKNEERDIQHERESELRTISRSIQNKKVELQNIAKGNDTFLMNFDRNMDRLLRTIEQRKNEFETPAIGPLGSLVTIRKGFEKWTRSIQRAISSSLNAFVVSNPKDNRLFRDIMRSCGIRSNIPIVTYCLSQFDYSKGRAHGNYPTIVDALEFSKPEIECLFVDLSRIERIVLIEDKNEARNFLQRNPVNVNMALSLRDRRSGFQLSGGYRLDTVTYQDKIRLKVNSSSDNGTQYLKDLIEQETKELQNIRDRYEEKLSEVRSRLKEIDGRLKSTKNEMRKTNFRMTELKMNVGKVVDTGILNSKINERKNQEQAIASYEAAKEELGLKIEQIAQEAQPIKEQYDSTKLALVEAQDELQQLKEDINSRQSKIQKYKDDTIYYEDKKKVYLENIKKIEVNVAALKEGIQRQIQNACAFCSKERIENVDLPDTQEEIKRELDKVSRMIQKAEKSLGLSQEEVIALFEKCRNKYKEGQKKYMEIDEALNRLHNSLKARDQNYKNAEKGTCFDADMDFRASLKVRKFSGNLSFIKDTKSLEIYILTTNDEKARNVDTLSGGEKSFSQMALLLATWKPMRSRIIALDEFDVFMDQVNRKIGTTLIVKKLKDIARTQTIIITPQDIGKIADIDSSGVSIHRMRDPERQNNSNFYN
T2 sequence (Q07913 whole entry partner): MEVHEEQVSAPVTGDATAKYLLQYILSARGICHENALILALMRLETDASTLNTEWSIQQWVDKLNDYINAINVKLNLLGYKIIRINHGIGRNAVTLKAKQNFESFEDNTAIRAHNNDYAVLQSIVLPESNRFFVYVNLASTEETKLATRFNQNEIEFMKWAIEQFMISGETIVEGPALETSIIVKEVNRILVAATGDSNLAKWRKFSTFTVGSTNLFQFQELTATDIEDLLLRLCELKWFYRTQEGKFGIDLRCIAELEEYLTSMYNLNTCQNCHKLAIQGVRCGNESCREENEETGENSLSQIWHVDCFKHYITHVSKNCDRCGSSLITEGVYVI
T2 sequence (P38632 whole entry partner): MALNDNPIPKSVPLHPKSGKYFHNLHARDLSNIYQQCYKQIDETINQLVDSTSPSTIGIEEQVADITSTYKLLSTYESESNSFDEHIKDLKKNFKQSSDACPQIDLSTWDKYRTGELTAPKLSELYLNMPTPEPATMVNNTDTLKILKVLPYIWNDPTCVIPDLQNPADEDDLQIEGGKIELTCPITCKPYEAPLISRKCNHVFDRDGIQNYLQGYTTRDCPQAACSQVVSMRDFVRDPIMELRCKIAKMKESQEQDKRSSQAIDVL
T2 sequence (Q05541 whole entry partner): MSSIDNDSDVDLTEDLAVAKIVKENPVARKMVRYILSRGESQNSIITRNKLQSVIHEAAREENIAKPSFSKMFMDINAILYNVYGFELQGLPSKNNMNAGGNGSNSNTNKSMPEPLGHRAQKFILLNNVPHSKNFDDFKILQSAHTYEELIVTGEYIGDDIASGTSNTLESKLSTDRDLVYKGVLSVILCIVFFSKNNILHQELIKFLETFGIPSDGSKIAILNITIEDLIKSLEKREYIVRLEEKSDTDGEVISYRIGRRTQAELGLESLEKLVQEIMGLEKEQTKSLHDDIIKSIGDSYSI
T2 sequence (P43124 whole entry partner): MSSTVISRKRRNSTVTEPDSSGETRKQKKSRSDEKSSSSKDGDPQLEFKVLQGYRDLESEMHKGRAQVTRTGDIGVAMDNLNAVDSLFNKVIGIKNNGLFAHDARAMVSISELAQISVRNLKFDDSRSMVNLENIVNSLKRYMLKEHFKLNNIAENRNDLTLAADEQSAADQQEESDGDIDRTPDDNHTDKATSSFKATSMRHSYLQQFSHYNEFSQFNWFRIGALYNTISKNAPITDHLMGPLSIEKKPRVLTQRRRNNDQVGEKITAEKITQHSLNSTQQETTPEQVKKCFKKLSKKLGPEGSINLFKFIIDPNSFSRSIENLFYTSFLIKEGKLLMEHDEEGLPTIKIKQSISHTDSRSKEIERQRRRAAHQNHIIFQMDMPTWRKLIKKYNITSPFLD

Molecule | no noticeable ATP hydrolysis (Smc5/6 core hexamer) | binding result (Nse5/6 dimer) | Kd [1] [nM] | Kd [2] [nM]
Nc1ncnc2c1ncn2[C@@H]1O[C@H](COP(=O)(O)OP(=O)(O)OP(=O)(O)O)[C@@H](O)[C@H]1O [ATP] | did not display noticeable ATP hydrolysis activity |  |  | 
40bpDNA (STI699/STI700) (dsDNA) DNA 1: TTAGTTGTTCGTAGTGCTCGTCTGGCTCTGGATTACCCGC DNA 2: GCGGGTAATCCAGAGCCAGACGAGCACTACGAACAACTAA |  | no binding | ~150 | ~100
